In article PMC7643160, “An ambruticin-sensing complex modulates Myxococcus xanthus development and mediates myxobacterial interspecies communication” (Nature Communications, 2020):

T1: AskC (hybrid histidine kinase, MXAN_6734) (Myxococcus xanthus, UniProt Q1CXM2)
T1 construct: C-terminally His6-tagged AskC
T1 sequence (Q1CXM2 1-671): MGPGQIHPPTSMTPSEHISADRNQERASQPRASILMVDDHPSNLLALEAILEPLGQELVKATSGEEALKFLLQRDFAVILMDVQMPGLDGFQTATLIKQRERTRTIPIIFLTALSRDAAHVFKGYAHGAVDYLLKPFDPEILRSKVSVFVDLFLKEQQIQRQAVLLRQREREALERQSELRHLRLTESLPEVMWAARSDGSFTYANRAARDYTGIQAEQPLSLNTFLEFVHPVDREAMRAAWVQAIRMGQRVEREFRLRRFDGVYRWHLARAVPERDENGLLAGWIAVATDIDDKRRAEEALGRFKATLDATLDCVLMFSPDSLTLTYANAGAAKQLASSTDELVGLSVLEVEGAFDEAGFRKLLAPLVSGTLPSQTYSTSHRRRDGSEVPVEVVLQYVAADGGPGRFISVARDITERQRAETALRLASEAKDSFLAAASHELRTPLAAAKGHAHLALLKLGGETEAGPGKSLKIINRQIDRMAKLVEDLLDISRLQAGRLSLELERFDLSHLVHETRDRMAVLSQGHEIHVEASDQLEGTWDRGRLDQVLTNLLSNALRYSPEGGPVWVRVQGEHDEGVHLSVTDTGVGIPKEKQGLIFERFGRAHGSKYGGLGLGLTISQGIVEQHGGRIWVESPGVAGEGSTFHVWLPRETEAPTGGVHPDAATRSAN


What was measured:
[1] = system: MrpC (Myxococcus xanthus DK1622); experiment: EMSA; conditions: EMSA: 25 mM K-acetate, 8 mM MgSO4, 0.1 mM DTT, 15 mM Tris-HCl pH 7.3, 8% glycerol, 250 ng poly-dIdC, 200 fmol DNA, 15 ul, 30 C 30 min. Pull-down (purified): …
[2] = molecular target: AskA (ambruticin sensor kinase A, MXAN_0712), hybrid histidine kinase (Myxococcus xanthus); experiment: MST + SPR; average of the KD values from MST and from SPR (mean KD of Table 1)
Chain of AskA (ambruticin sensor kinase A, MXAN_0712), hybrid histidine kinase (Myxococcus xanthus) (main, as listed by the source): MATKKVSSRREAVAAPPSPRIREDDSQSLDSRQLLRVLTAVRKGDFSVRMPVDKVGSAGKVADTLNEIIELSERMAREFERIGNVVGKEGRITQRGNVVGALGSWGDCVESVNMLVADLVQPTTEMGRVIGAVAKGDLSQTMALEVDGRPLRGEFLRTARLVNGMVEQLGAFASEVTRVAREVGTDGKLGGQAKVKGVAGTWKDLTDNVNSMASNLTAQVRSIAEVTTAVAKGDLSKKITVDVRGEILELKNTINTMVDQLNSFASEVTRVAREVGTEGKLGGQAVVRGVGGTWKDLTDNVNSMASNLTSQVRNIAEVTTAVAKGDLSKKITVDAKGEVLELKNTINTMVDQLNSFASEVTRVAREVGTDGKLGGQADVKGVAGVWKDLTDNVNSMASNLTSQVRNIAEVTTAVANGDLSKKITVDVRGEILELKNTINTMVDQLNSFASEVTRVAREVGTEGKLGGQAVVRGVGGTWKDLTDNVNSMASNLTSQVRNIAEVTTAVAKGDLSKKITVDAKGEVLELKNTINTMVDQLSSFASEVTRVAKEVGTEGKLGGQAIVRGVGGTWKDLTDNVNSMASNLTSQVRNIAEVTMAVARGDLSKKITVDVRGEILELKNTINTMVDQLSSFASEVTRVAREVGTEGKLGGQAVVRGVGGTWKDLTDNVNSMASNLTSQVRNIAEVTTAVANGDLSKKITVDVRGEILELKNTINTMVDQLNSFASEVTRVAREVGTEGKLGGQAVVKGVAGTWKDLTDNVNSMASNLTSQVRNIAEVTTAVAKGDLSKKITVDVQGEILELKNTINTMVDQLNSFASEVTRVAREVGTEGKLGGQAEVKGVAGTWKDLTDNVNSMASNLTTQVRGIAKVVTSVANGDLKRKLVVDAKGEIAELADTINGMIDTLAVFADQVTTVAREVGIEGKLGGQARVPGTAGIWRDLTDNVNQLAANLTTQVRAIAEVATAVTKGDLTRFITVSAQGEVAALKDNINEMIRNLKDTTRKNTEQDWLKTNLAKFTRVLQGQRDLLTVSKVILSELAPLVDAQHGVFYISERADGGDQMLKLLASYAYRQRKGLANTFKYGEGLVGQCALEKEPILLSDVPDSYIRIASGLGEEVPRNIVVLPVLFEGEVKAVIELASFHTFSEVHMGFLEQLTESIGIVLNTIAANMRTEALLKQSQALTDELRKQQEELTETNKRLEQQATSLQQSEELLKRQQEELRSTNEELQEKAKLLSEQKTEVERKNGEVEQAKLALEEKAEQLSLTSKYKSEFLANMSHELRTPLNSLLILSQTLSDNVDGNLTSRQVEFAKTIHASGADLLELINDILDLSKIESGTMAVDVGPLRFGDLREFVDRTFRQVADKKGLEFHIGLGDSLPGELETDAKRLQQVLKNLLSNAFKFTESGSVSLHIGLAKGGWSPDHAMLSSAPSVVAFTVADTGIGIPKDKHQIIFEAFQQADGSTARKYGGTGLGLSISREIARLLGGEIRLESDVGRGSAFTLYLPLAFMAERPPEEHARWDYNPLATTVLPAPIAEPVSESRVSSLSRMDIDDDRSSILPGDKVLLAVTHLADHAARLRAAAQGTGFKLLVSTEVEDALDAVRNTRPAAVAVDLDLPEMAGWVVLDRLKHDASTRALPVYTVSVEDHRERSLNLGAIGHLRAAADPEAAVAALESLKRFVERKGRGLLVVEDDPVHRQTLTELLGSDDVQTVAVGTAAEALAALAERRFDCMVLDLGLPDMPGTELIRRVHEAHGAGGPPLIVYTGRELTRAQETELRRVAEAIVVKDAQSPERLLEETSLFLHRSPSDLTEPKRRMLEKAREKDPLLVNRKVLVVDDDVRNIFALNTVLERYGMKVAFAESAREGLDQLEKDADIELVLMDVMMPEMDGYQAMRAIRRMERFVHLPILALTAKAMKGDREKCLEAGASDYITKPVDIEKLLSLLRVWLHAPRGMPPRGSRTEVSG

[3] = molecular target: AskA (ambruticin sensor kinase A, MXAN_0712), hybrid histidine kinase (Myxococcus xanthus); experiment: SPR; equilibrium analysis on Biacore X100; ligand amine-coupled to a CM5 chip (which partner is not told); analyte in KB1 running buffer, 0.001 to 1000 µM; 25 °C; 1:1 fit; triplicates
[4] = molecular target: AskA (ambruticin sensor kinase A, MXAN_0712), hybrid histidine kinase (Myxococcus xanthus); experiment: MST; NT647-labelled C-terminally His6-tagged AskA, AskB or AskC titrated with serial 1:1 dilutions of non-labelled protein; buffer KB1 (500 mM NaCl, 25 mM HEPES, 0.2% Triton X100, pH 7.4); 25 °C; 40% LED power, 40% MST power; triplicates
[5] = molecular target: AskB (ambruticin sensor kinase B, MXAN_6735), hybrid histidine kinase (Myxococcus xanthus); experiment: MST + SPR; average of the KD values from MST and from SPR (mean KD of Table 1)
Chain of AskB (ambruticin sensor kinase B, MXAN_6735), hybrid histidine kinase (Myxococcus xanthus) (main, as listed by the source): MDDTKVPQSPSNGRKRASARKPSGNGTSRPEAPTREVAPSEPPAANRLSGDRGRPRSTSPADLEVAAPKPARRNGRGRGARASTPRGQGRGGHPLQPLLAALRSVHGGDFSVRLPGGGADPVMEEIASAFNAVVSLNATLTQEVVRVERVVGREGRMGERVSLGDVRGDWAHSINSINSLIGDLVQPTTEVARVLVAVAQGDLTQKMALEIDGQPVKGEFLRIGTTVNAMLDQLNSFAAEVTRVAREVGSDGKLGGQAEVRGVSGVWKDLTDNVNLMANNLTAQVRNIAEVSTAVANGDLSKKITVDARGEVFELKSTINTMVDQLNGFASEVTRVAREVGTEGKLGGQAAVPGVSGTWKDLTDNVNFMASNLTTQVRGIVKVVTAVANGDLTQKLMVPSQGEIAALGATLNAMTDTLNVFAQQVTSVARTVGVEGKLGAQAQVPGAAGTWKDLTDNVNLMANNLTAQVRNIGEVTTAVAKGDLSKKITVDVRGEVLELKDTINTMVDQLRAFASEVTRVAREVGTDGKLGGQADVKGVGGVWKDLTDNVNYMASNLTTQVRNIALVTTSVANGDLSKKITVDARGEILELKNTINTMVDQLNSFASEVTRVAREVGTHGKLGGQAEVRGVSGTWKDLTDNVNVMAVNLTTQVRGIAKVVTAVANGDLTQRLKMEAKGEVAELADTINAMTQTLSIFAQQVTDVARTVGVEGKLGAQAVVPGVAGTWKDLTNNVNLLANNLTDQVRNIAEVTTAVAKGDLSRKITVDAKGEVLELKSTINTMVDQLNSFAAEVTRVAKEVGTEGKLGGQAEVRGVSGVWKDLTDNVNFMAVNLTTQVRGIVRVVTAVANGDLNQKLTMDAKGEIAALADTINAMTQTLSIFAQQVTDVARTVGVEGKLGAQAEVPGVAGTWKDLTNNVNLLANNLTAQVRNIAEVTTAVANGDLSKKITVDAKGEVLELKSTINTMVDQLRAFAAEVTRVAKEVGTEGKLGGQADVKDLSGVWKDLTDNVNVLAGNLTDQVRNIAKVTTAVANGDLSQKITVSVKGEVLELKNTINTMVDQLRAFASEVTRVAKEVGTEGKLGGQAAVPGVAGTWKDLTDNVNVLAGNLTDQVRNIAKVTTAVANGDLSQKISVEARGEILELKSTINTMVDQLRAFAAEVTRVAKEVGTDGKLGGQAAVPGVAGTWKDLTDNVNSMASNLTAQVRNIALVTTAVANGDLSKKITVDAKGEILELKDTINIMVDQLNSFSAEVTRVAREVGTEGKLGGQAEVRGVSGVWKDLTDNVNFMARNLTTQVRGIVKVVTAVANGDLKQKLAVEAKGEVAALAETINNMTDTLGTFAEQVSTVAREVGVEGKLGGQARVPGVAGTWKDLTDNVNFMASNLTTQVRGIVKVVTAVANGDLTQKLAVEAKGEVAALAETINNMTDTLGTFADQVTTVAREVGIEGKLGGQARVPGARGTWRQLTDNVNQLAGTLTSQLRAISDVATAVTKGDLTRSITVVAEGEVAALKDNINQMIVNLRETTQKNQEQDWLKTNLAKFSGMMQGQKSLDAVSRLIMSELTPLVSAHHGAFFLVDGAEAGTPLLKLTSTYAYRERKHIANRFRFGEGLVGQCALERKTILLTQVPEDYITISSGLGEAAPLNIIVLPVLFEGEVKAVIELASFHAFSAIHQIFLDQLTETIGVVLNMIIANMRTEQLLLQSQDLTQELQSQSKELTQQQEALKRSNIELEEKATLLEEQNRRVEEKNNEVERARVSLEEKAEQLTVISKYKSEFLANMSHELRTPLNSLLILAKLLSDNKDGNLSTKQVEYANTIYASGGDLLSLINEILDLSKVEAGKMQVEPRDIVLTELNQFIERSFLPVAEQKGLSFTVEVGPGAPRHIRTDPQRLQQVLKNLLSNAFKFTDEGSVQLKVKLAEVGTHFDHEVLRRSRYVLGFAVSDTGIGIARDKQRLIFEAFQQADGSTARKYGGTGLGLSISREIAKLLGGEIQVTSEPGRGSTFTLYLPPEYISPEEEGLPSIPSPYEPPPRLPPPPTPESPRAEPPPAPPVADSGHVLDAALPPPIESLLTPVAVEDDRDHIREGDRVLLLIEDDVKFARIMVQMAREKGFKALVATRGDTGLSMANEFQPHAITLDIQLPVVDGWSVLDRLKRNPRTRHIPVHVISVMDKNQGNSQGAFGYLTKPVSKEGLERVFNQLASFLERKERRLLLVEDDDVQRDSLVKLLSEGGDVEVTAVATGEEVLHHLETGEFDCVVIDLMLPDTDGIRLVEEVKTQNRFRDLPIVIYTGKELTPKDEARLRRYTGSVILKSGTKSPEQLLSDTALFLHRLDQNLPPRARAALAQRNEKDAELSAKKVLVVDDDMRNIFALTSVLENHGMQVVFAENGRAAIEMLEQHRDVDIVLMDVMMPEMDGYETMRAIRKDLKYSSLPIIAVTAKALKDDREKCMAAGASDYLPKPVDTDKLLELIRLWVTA

[6] = molecular target: AskB (ambruticin sensor kinase B, MXAN_6735), hybrid histidine kinase (Myxococcus xanthus); experiment: SPR; equilibrium analysis on Biacore X100; ligand amine-coupled to a CM5 chip (which partner is not told); analyte in KB1 running buffer, 0.001 to 1000 µM; 25 °C; 1:1 fit; triplicates
[7] = molecular target: AskB (ambruticin sensor kinase B, MXAN_6735), hybrid histidine kinase (Myxococcus xanthus); experiment: MST; NT647-labelled C-terminally His6-tagged AskA, AskB or AskC titrated with serial 1:1 dilutions of non-labelled protein; buffer KB1 (500 mM NaCl, 25 mM HEPES, 0.2% Triton X100, pH 7.4); 25 °C; 40% LED power, 40% MST power; triplicates
[8] = molecular target: T1, AskC (hybrid histidine kinase, MXAN_6734); experiment: MST and SPR with purified protein (KD […] by MST, […] by SPR; mean given); type: binding
[9] = molecular target: AskC (MXAN_6734), hybrid histidine kinase, C-terminally His6-tagged (Myxococcus xanthus); experiment: MST + SPR; average of the KD values from MST and from SPR (mean KD of Table 1)
[10] = molecular target: AskC (MXAN_6734), hybrid histidine kinase, C-terminally His6-tagged (Myxococcus xanthus); experiment: SPR; equilibrium analysis on Biacore X100; ligand amine-coupled to a CM5 chip (which partner is not told); analyte in KB1 running buffer, 0.001 to 1000 µM; 25 °C; 1:1 fit; triplicates
[11] = molecular target: AskC (MXAN_6734), hybrid histidine kinase, C-terminally His6-tagged (Myxococcus xanthus); experiment: MST; NT647-labelled C-terminally His6-tagged AskA, AskB or AskC titrated with serial 1:1 dilutions of non-labelled protein; buffer KB1 (500 mM NaCl, 25 mM HEPES, 0.2% Triton X100, pH 7.4); 25 °C; 40% LED power, 40% MST power; triplicates

Molecule | mean KD [2] | Kd [3] | Kd [4] | mean KD [5] | Kd [6] | Kd [7] | mean KD [9] | Kd [10] | Kd [11] | Kd [1] | Kd [8]
HEX-PmrpC |  |  |  |  |  |  |  |  |  | < 0.005 µM | 
AskB (ambruticin sensor kinase B, MXAN_6735), hybrid histidine kinase (enzyme) | 2.8 µM | 3 µM | 2.3 µM |  |  |  |  |  |  |  | 
CCC1OC(/C(C)=C/C(C)/C=C/C2C(C)C2/C=C/C2OC(CC(=O)O)CC(N(C)C)C2O)CC=C1C (centres unmarked) [ambVS3, ambruticin VS-3] |  |  |  |  |  |  |  |  |  |  | 300 ± 200 µM

Now from value to molecule, other results behind:

mean KD [2] | Kd [3] | Kd [4] | mean KD [5] | Kd [6] | Kd [7] | mean KD [9] | Kd [10] | Kd [11] | Molecule | Kd [1] | Kd [8]
2.8 µM | 1.4 µM | 4.1 µM | 0.7 µM | 0.4 µM | 0.9 µM |  |  |  | AskC (MXAN_6734), hybrid histidine kinase, C-terminally His6-tagged (enzyme) |  | 
1 µM | 0.5 µM | 1.4 µM | 1.2 µM | 0.2 µM | 2.1 µM | 1.4 µM | 1.5 µM | 1.3 µM | FruA, transcriptional regulator of development (natural protein) MATNQAAIRVSILEGPWAAWQGLADGLRGEGVQVSSVTRDVRLFLDSLGTDPPQVAVMDVEGDSEAAVGCSVTEGINLLREARKRRLEVRMLLLSAVSTPEIISQCFDEGASGYLFRAGLGTTAVASAINSLVRGERLFPVQLLRNDFEHPPVTSPTASVLLALTQREREVLAYVAGGADNLKIAAHLQIAERTVKSHVTQLYRKLGAENRTQLALRACHLGVRPPPDL |  | 
0.8 µM | 1 µM | 0.5 µM | 1.2 µM | 0.3 µM | 2.1 µM | 1.5 µM | 1.6 µM | 1.4 µM | MrpC, transcriptional regulator of development (natural protein) MHGFNRPLGPIGSNVVAPLQTTSSGMMVTANKLVPGQEAIDFKGYFKVESFPHNSTIYRPGDNTDRVYLLKSGRVRLMRIGKNSTRSVVSILRPGDLFGELFRPEGTPIEEMAIAAGEAEVWSIEGRDFRAQLEARPALAVDVVRAYAERVRALRKRVLGLTFKEVPARLADTLLTLVEAHGERCPHGGETDLRGITQQDLADLVGASRSFVSTLINEMKREGVLGNVGRILCVRDQKALRKIAGKEK |  | 
